Test results from US20160297883A1, “G-PROTEIN COUPLED RECEPTOR AGONISTS AND METHODS” (Innovative Targeting Solutions, Inc., priority 2013, published 2016).

Biological target: T1, GLP1R (Homo sapiens, UniProt P43220, A316G/L260F)
T1 construct: host or cells: HuTARG cells (engineered HEK293), subclone L696 / L696.19
Assay: cAMP-responsive CD19 surface reporter assay in HuTARG-L696 GLP1R reporter cell line (FACS)
Assay type: cell-based
Description: HuTARG™ cells, which are HEK293 cells engineered to be capable of de novo antibody generation, were used to generate the reporter cell line. HuTARG™ cells have been stably transfected with expression cassettes for RAG1 and RAG-2 and Tdt. RAG-1 expression is inducible as the gene has been placed downstream of a Tet inducible promoter. HuTARG™ cells have also been stably transfected with a plasmid containing a LoxP site for subsequent insertion of V(D)J substrates.
HuTARG™ cells were modified to express the GLP1 receptor as well as express a reporter gene that was activated by cAMP. […]
Depleted cells were subsequently expanded and depleted an additional time using the same protocol except using a Miltenyi LD magnetic column. […] Single cell clones confirmed to have minimal CD19 expression in the absence of ligand were evaluated for induction of CD19 in the presence of 10 nM Exendin and the L696 subclone was selected. […]
The peptide-grafted antibody, ITS007-V107, was subsequently cloned and expressed as a single-domain VH-IgG antibody without CH1 or a light chain and it was confirmed that the peptide-grafted heavy chain was functional in this format as well (FIG. 12). […]
ITS007-V125 was cloned into a secretion vector, expressed and purified. […] The next day, binding and the percentage of cells expressing the surface marker were determined by FACS.

T1 sequence (P43220 24-463 L260F/A316G): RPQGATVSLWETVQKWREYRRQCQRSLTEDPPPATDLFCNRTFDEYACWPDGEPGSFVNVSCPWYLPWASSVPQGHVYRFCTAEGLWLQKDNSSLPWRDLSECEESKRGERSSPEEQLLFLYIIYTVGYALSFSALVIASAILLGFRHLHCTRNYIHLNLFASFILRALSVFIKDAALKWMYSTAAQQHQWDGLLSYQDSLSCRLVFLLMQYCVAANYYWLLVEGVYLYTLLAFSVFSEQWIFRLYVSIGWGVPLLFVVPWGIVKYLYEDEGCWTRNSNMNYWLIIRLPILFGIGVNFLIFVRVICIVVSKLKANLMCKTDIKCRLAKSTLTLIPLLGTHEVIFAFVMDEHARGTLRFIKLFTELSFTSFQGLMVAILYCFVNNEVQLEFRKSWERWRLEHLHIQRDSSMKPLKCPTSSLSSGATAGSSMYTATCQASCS

Exendin-4 [reference compound]
induction of CD19 expression (10 nM, 24 hours, L696 cell line): CD19 expression is specifically induced
percentage of cells showing CD19 expression (50 nM, 48 hours incubation with reporter line): approximately 8%
